# Assays:
# SPRR2E = SPRR2E (UniProt P22531); assay: co-IP with mouse IgG control, mass spectrometry; lysate of N-FLAG B3GNT2 cells
# SSR1 [1] = target: SSR1 (UniProt P43307); assay: as above
# HNRNPF = HNRNPF (UniProt P52597); assay: as above
# AHNAK [2] = target: AHNAK (UniProt Q09666); assay: as above
# UBA52 [3] = target: UBA52 (UniProt P62987); assay: as above
# RPL35A = RPL35A (UniProt P18077); assay: as above
# MOV10 (human) = target: T1, MOV10 (human) (UniProt Q9HCE1); assay: co-IP, anti-FLAG, lysate of cells with N-FLAG B3GNT2; mass spectrometry
# T1 sequence (looked up): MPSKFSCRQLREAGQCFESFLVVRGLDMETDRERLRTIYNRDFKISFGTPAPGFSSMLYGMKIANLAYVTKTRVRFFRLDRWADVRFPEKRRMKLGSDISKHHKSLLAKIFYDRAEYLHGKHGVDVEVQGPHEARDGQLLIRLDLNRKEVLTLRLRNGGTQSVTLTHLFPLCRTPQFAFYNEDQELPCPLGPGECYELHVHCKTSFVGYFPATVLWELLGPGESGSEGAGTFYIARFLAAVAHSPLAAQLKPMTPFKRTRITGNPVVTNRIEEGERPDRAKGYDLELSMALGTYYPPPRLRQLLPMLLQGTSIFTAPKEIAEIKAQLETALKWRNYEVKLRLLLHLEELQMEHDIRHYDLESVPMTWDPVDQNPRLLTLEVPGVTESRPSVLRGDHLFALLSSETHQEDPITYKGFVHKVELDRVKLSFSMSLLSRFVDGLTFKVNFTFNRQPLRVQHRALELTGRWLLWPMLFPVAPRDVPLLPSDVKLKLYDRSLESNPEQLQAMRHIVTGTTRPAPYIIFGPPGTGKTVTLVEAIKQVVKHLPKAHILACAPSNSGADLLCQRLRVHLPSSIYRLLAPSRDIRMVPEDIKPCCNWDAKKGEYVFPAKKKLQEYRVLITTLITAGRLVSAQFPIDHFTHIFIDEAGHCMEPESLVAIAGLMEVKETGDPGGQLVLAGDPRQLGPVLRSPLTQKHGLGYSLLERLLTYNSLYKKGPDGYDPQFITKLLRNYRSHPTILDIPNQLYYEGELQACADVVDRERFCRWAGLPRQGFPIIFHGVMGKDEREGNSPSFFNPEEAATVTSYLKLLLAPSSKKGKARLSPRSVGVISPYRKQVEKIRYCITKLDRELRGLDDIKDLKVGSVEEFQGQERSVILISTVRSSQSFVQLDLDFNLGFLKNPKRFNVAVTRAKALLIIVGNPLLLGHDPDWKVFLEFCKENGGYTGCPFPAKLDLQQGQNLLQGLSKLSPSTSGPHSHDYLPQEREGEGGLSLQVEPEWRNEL
# HUWE1 (human) = HUWE1 (human) (UniProt Q7Z6Z7); assay: as above
# HSPA8 (human) = HSPA8 (human) (UniProt P11142); assay: as above
# HSPA8 (human), sequence (P11142 2-646 limits assumed): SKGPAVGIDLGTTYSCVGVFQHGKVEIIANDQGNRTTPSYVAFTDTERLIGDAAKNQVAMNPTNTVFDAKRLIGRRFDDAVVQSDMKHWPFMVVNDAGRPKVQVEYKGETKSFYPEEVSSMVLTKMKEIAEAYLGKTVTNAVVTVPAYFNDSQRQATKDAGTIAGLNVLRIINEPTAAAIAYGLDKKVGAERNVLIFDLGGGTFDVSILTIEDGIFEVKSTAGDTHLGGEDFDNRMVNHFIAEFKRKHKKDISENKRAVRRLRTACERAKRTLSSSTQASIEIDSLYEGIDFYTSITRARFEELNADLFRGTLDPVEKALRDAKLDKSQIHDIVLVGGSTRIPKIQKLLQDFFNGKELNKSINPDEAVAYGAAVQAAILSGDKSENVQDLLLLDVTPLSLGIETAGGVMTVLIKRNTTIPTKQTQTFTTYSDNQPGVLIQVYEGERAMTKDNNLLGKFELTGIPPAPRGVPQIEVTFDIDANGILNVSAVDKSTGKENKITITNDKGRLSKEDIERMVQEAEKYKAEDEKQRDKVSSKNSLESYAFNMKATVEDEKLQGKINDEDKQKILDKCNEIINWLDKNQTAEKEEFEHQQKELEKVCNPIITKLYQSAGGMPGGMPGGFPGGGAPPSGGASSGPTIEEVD
# RPL18 (human) = RPL18 (human) (UniProt Q07020); assay: as above
# RPL13 (human) = RPL13 (human) (UniProt P26373); assay: as above
# GGCT (human) = GGCT (human) (UniProt O75223); assay: as above
# GGCT (human), sequence (O75223 whole entry): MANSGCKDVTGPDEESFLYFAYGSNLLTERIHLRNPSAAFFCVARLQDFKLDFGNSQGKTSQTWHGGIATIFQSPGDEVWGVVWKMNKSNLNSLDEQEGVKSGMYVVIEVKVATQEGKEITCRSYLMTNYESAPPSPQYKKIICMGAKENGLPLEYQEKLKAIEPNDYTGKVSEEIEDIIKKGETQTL
# C1orf68 (human) = C1orf68 (human) (UniProt Q5T750); assay: as above
# C1orf68 (human), sequence (Q5T750 whole entry): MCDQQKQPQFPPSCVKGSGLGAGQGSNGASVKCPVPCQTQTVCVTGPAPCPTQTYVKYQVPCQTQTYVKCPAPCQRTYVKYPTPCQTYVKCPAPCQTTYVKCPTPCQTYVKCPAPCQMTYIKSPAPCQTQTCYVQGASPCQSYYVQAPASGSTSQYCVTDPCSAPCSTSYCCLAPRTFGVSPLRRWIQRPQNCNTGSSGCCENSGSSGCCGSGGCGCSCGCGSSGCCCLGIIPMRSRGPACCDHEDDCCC
# CAT (human) = CAT (human) (UniProt P04040); assay: as above
# CAT (human), sequence (P04040 2-527 limits assumed): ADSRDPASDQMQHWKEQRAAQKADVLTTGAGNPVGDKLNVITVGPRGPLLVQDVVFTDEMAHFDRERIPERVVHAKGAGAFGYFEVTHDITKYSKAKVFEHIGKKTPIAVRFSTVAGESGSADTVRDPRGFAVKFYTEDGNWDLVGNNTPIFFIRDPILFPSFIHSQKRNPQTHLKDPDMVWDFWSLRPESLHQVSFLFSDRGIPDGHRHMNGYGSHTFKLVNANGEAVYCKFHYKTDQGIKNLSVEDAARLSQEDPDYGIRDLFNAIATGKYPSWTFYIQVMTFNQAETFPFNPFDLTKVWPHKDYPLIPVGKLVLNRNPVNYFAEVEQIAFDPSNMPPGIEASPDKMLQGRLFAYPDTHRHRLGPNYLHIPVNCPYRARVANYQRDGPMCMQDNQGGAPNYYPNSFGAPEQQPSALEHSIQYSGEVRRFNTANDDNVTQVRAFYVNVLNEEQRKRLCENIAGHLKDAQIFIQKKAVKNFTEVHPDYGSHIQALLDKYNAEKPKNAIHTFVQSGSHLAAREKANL
# SAMM50 (human) = SAMM50 (human) (UniProt Q9Y512); assay: as above
# SAMM50 (human), sequence (Q9Y512 whole entry): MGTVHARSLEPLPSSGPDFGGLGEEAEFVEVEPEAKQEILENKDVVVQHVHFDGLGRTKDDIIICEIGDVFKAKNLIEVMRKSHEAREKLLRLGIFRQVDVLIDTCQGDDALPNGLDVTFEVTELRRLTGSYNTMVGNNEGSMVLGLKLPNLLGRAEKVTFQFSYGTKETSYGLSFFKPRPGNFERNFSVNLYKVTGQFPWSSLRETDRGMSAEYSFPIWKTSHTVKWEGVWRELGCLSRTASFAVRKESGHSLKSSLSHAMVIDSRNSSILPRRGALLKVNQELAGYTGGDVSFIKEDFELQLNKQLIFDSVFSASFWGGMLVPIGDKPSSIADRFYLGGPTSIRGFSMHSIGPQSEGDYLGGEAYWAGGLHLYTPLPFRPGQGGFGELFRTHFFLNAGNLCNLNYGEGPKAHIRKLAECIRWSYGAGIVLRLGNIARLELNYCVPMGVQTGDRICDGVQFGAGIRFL
# ACTR3 = ACTR3 (UniProt P61158); assay: co-IP with anti-FLAG, mass spectrometry; N-FLAG B3GNT2
# FABP5 = FABP5 (UniProt Q01469); assay: as above
# FABP5, sequence (Q01469 2-135 limits assumed): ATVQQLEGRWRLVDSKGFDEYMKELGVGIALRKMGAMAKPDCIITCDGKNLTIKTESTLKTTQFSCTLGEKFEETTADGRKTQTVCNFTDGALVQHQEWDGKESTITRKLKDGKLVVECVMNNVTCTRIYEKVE
# PPIA = PPIA (UniProt P62937); assay: as above
# PPIA, sequence (P62937 2-165 limits assumed): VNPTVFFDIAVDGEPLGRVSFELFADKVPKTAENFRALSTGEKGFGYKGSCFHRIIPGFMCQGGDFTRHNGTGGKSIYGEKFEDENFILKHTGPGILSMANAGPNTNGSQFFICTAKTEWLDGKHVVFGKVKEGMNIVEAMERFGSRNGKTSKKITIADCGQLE
# SSR1 [4] = target: SSR1 (UniProt P43307); assay: as above
# STRAP = STRAP (UniProt Q9Y3F4); assay: as above
# STRAP, sequence (Q9Y3F4 whole entry): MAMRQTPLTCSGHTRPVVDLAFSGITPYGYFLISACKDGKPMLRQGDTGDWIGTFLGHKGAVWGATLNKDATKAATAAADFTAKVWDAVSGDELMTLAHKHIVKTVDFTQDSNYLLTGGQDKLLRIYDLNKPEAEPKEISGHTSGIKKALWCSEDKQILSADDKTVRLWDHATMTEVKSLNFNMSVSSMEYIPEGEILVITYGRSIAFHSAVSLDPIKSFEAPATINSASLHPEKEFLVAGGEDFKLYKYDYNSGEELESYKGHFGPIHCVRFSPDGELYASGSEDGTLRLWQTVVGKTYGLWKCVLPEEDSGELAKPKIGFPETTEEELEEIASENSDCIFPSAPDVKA
# ENO1 = ENO1 (UniProt P06733); assay: as above
# ENO1, sequence (P06733 2-434 limits assumed): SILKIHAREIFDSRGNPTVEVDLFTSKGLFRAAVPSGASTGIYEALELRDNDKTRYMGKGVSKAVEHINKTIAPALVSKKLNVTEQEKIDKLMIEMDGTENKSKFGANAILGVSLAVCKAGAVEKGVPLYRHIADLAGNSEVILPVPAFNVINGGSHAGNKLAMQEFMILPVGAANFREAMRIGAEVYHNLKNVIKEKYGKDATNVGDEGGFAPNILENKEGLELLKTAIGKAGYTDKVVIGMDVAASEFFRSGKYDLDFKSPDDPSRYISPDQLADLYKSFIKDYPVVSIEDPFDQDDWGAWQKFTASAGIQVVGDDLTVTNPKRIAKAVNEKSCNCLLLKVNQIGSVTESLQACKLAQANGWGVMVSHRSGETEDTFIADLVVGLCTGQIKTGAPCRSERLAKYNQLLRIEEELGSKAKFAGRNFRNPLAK
# ATP5F1B = ATP5F1B (UniProt P06576); assay: as above
# S100A9 = S100A9 (UniProt P06702); assay: as above
# S100A9, sequence (P06702 whole entry): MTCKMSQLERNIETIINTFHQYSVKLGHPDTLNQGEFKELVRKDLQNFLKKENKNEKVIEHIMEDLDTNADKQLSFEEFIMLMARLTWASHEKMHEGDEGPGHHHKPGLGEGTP
# YWHAZ = YWHAZ (UniProt P63104); assay: as above
# PCMT1 = PCMT1 (UniProt P22061); assay: as above
# PCMT1, sequence (P22061 2-227 limits assumed): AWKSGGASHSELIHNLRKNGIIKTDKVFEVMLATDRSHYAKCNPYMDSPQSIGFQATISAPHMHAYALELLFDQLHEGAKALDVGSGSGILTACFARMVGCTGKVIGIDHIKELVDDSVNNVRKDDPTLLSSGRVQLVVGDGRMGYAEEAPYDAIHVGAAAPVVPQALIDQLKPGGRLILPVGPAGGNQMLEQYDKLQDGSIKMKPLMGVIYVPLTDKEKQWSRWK
# AHNAK [5] = target: AHNAK (UniProt Q09666); assay: as above
# SERPINB12 = SERPINB12 (UniProt Q96P63); assay: as above
# SERPINB12, sequence (Q96P63 other isoform, or with tags, fused parts or gaps limits assumed): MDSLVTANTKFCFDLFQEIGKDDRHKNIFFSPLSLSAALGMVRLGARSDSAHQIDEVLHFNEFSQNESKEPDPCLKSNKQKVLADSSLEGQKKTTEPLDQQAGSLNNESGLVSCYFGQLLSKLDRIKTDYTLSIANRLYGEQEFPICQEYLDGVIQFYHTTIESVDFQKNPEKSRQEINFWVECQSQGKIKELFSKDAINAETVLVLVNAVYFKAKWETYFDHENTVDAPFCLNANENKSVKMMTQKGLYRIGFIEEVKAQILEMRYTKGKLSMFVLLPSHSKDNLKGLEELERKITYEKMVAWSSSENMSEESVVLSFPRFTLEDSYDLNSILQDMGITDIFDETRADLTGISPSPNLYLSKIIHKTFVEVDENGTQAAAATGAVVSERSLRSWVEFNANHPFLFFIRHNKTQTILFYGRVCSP
# UBA52 [6] = target: UBA52 (UniProt P62987); assay: as above
# SSR1, sequence (P43307 19-286 limits assumed): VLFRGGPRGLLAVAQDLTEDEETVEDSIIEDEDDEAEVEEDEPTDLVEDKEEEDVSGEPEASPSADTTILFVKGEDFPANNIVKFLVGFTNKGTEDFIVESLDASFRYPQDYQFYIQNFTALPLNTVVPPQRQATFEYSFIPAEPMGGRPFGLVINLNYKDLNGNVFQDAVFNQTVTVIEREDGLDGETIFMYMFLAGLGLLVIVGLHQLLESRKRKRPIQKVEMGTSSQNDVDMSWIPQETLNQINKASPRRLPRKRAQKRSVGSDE
# HNRNPF, sequence (P52597 2-415 limits assumed): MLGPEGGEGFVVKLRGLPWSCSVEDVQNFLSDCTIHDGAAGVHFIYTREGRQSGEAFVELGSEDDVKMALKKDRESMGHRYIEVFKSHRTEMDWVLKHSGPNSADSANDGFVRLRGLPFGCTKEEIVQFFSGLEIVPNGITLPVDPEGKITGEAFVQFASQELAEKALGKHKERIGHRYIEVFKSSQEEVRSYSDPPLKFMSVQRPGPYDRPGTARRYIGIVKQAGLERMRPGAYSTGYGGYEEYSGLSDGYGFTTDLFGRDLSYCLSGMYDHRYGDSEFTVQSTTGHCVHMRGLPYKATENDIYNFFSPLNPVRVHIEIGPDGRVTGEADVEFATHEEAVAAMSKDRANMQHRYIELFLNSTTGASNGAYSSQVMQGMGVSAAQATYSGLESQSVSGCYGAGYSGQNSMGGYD
# SPRR2E, sequence (P22531 whole entry): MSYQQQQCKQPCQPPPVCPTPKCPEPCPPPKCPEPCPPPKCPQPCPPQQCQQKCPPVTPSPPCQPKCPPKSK
substance,measurement,setting,value
IgG control (Millipore Sigma 12-371) (antibody),co-IP mass spectrometry count,SPRR2E,3
same,co-IP mass spectrometry count,SSR1 [1],0
same,co-IP mass spectrometry count,HNRNPF,0
same,co-IP mass spectrometry count,AHNAK [2],0
same,co-IP mass spectrometry count,UBA52 [3],5
same,co-IP mass spectrometry count,RPL35A,0
N-terminal FLAG tagged B3GNT2 (from UniProt Q9NY97 1-397) (enzyme),co-IP mass spectrometry count,MOV10 (human),4
same,co-IP mass spectrometry count,HUWE1 (human),3
same,co-IP mass spectrometry count,HSPA8 (human),41
same,co-IP mass spectrometry count,RPL18 (human),11
same,co-IP mass spectrometry count,RPL13 (human),15
same,co-IP mass spectrometry count,GGCT (human),3
same,co-IP mass spectrometry count,C1orf68 (human),13
same,co-IP mass spectrometry count,CAT (human),6
same,co-IP mass spectrometry count,SAMM50 (human),3
same,co-IP mass spectrometry count,ACTR3,3
same,co-IP mass spectrometry count,FABP5,6
same,co-IP mass spectrometry count,PPIA,6
same,co-IP mass spectrometry count,SSR1 [4],3
same,co-IP mass spectrometry count,STRAP,4
same,co-IP mass spectrometry count,ENO1,5
same,co-IP mass spectrometry count,ATP5F1B,2
same,co-IP mass spectrometry count,S100A9,18
same,co-IP mass spectrometry count,YWHAZ,2
same,co-IP mass spectrometry count,PCMT1,4
same,co-IP mass spectrometry count,AHNAK [5],3
same,co-IP mass spectrometry count,SERPINB12,4
same,co-IP mass spectrometry count,UBA52 [6],4

# Reference: patent US20240261333A1, “NOVEL TARGETS FOR ENHANCING ANTI-TUMOR IMMUNITY” (THE BROAD INSTITUTE, INC., priority 2021, published 2024)
